The results in this text go back to PMC4118983, “Structural Insights into Calcium-Bound S100P and the V Domain of the RAGE Complex” (PLoS ONE, 2014).

Residue numbers refer to the chain shown, from its start. Names may count otherwise. “And” between values parts separate entries of the source, which are not always exact repeats. Equal entries are not always repeated.

For data set [1], the target named is T1, Recombinant RAGE V domain (residues 24–121) (UniProt Q15109 24-121).
T1 construct: Receptor for advanced glycation end products (RAGE), V domain, residues 24-121; Purified as a monomer; 15N- or 15N,13C-labelled or unlabelled in the NMR experiments; also called V domain of RAGE; not shown: His6, N-terminal, cleaved
T1 sequence (Q15109 24-121): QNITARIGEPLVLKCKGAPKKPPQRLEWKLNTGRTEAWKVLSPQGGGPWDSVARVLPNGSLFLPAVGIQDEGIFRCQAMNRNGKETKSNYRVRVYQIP
Put plainly: ITC; S100P (2.0 mM, syringe) titrated into RAGE V domain (0.06 mM, cell); MicroCal VP-ITC; 25°C; 20 mM Tris-HCl pH 7.0, 100 mM NaCl, 4 mM CaCl2; single-site model; similar approach for the S100P mutants. Particulars: both partners purified. A general note: Isothermal titration calorimetry measures the heat released or taken up as one component is titrated into another.

Data set [2] deals with the molecule itself. Briefly: SEC; S100P proteins on a Superdex 75 column (1.6×60 cm), last step of purification. (Size exclusion chromatography separates by hydrodynamic size, large species first.)
Data set [3] has as its target T1, Recombinant RAGE V domain (residues …). Put plainly: other fluorescence titration; intrinsic tryptophan fluorescence of 2 µM RAGE V domain (excitation 295 nm, emission 348.5 nm), S100P added in increments; 20 mM Tris-HCl pH 7.0, 100 mM NaCl, 4 mM CaCl2; 25°C; one-site binding model. Particulars: both partners purified.
Data set [4] has the same target. Briefly: cell-based or functional assay.

B1: Recombinant wild-type S100P (residues 1–95), calcium-bound (natural protein, UniProt P25815 1-95, looked up)
chain: MTELETAMGMIIDVFSRYSGSEGSTQTLTKGELKVLMEKELPGFLQSGKDKDAVDKLLKDLDANGDAQVDFSEFIVFVAAITSACHKYFEKAGLK
notes: S100P, residues 1-95; 15N-labelled or unlabelled in the NMR experiments; it names no tag; also called WS100P; source: E. coli BL21(DE3), pET-20b(+), purified (size exclusion chromatography, Superdex 75)
In general, Kd refers to the free concentration of one partner at which half of the binding sites on the other are occupied at equilibrium, for simple one-to-one binding. In general, stoichiometry N refers to the number of molecules, sites or subunits per partner or assembly. Regarding B1, in data set [1], the Kd turned out to be 6.2 ± 0.1 µM, the dH is 4.094 ± 0.02 kcal/mol and the “stoichiometry N” value stood at 1.07 ± 0.03. For the same molecule, the “stoichiometry N” value in data set [2] amounted to 2. Also, the Kd in data set [3] was roughly 6.8 µM. Besides, in data set [4], the “SW-480 cell proliferation (MTT assay, 48 h), 100 nM wild-type S100P, viable cell count against the control” value was roughly 1.5 fold.

B2: S100P D13A single mutant (natural protein, UniProt P25815 1-95, looked up)
chain: B1 chain with D13A
notes: S100P, residues 1-95, with D13A; Used with 4 mM CaCl2; source: E. coli BL21(DE3), pET-20b(+), purified (size exclusion chromatography, Superdex 75)
As for B2, in data set [1], the Kd was 878 µM. Besides, the “stoichiometry N” value in data set [2] was 2.

B3: S100P F44G/Y88G/F89G triple mutant (natural protein, UniProt P25815 1-95, looked up)
chain: B1 chain with F44G, Y88G, F89G
notes: S100P, residues 1-95, with F44G, Y88G and F89G; Section 2.2 prints 'F44G/Y89G/F89G'; every other place prints F44G/Y88G/F89G; Used with 4 mM CaCl2; also called S100P F44G/Y89G/F89G (as printed in the methods); source: E. coli BL21(DE3), pET-20b(+), purified (size exclusion chromatography, Superdex 75)
For the molecule B3, the “stoichiometry N” value in data set [2] is 2.

B4: S100P E5A single mutant (natural protein, UniProt P25815 1-95, looked up)
chain: B1 chain with E5A
notes: S100P, residues 1-95, with E5A; Used with 4 mM CaCl2; source: E. coli BL21(DE3), pET-20b(+), purified (size exclusion chromatography, Superdex 75)
Turning to B4, in data set [1], the Kd is 22.8 µM and 23.6 µM. The “stoichiometry N” value in data set [2] turned out to be 2.
